We go through 50 sequences from the domain aggregation screens of Martell et al. (2025).

The series can be described thus: soluble fraction after stress (log2 fold change); higher = more stays soluble; pooled small domains, quantitative proteomics. The following applies: stress: 50 degC. An outline of the steps:
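Pooled custom libraries of small protein domains were measured in a high-throughput format, with quantitative proteomics as the read-out. Each library was stressed at 50°C. Aggregation propensity is given as the base-two logarithm of the fold change in how much of each protein stays soluble after the stress. Higher values mean a larger share of the protein remains in solution.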

Consider “HMGGRTITVGISENMTVKDIAQMLEEKGLIEDARLFVVQELLSAYHKEIKPGIYDLSTDMTAAQMLEIMS”, for which the “soluble fraction (log2)” value is -0.464. The figure for “HMQDEREEIAVEDVVGMPLWQARKVIADQGFRVLDDGAGDIVIAQMPSGGGKLIEGGQVMLYTYTD” is 0.186; for “HMRPTYRTRLEVLINNPAISGRDLDFAQSLLSYYERKGRLSAGRVKWVTTLEERYSPENLAASAAK” it is -0.828.

For the sequence “HMTKAILTANDVRNGDIVFWTADQRWSTSIDDAAIGYGKDDTDQLADAGKQAEAANTVVGAYLIALR”, the “soluble fraction (log2)” value was -0.276. For “HMVSDSAELSAFVADVIKENAQAVADYKGGKTNVFGWLMGQIIKKSGGKATPAAAAALLKAELEK”, the “soluble fraction (log2)” value came to 0.0521. For the sequence “HMQAVDPLELRAGDFVVHEQHGIGRYVEMVQRTIGGITREYLVIEYAPAKRGQPNDRVFVPTDTLEQVS”, the “soluble fraction (log2)” value is -0.514. The result for “HMITALLPGTVLIREFDGRDYHVTVATDGRFEMDGHKYPSLSAVAKHITGTQWSGPAFFGLN” reads -1.75; that for “HMGQKDYKTRLQEYFAKQGLKVNYEDTSHGPDHNKNFSTDVFLDGKIIGSGIGKSKKSSQQSAAKDALNIL”, 0.338. The result for “HMKDYQGNILIQSEGDRIDKFLFKYFNSFSRTKIKNHIINGNILVNDKNTIPAYVLKINDKISYDLSTSVK” reads -1.04; that for “HMGQLIGKEEAKQIALSRAGVAEGDISRYESELDTDDGKTKYEISFHVGRVEYDIEINAVTGAVEKFEMDN”, 0.131. The result for “HMPAMYKAERMNQILSILADQGDVDVGTLARQFGVSLVTIRKDLTYLESSGQLVRTHGGAIAVA” reads -0.767; that for “HMTEEDVVIFSGLSDRDLKMVQTELANSGIKYTLPTSGTVSVPNSEIARAQMVLAMAGIPRS”, 0.167; that for “HMGAFAIHTASELSAGMRIRHERFGPGVITGIDTANPASGARIQVDFDNGTSKTLLLSYAKFQI”, -0.622. “HMEARYQLREVSLDGLRSGMILNADVLSTDGVLMARKGLEVSGLLRSRLEAFAKMERIEPTFKVLVPIAPP”: the “soluble fraction (log2)” value was -0.389.

Take “HMPTPRVPMSKQRQILQLLQDGHLSTREIAAALHISKTSVGDIAKAARLAGLDWEAASKLSDEELSARIYK”: the “soluble fraction (log2)” value is -0.00175. For “HMKGEIEELLYEEVTKDNNTTFLRIYIKLNDEYNTLLNLGIIGIKTEEKVNELVNLGYKKVL”, the “soluble fraction (log2)” value was -2.45. The result for “HMTPQVALNDTETAIYEKMKQEKQMLLGELRAQFDISNKLWDTSLKTLTKNQLLAVSKEDDLLFVKL” reads 0.113. With “HMLPGKEIPLPEFLREAFARNEPALENFQNLAPSYRRQYILWITSAKTPETVQKRISESIGLLKENRKLGM”, the “soluble fraction (log2)” value turned out to be 0.0472. For “HMQASTGNVNTETLNLRKEASTSADILKLLSQGDEVEIVSESNGWYKVKYKDTEGFVSKEYITVN”, the “soluble fraction (log2)” value was 0.245. The result for “HMETEAGIKAYLSSSMIKGIGPVTAQRIVERFGKRTLYVLDQMPEKLLDISGISEAKLEEILNGYRKS” reads -0.24. “HMPMDYFELFNIPRNANRETIKKILDQEYEKYRARVVSPVLEIRHEAELMLVEISKAKQVLLG”: the “soluble fraction (log2)” value stood at 0.111.

With “HMTIAFPSNDVDAVVGYFESRGFDRTASISTATVILQQAKIDGVKVFELIDTLQGMDKVQLSYIVTEILN”, the “soluble fraction (log2)” value was determined as 0.03. The figure for “HMIDAAHLEKAILSLPEGARAVFVLIETEGFAHREVAELLGISEGTSKSQLNYAKKRLREILV” is -0.311; for “HMLRTLSTSEFAEAIGISESSARRLADSGDLRIRRTKGGHRKIPAEEAIRYAREIQATVVRPDLLGLST” it is 0.0109; for “HMSLPKIVVPTDVTVSQLAKYLEVDAISIIKQLFGMGVVASLNQRLEDEIIQLIGNEFGKEIIFSE” it is -0.054. The figure for “HMLLQENRKLHSKLEELQLISRAKAVLIEYLKLTEPQAHRYIEKQAMDLGLTRPQVALNILKTYE” is -0.202; for “HMQPIEIQDRITKAFERSAALEAKNINVEVDGHTVKLTGTVHSLTEKEEARKAAFFAPGVTKVENHLIVDY” it is 0.0426. The figure for “HMSPAPVSVDHLAFPTRDLEATDHFYSKVVGATLVHAESGYSPSWKSDYLLITYALPDGTRLSFFDWP” is 0.0261; for “HMTVGEKIQKYRKDLDLSQEELGQKLLVSRQTISLWEKDQTVPTIDNLIRLREIFGVSVDEILGF” it is -0.409. Take “HMKMSLKENLLELLQKSSGEFLSGERAAETLGVSRTAVWKAVTSLKNEGYNIESVTNRGYRFS”: the “soluble fraction (log2)” value was -0.0145.

With “HMGAISGEQREFYTVFRGHLNSHVGEFKVEDIENLLMKAKTEVPDLLEEEFLKMGEAILNRYRN”, the “soluble fraction (log2)” value was -0.0826. The figure for “HMLDPVLQREKDESFTDYHIRLFKNKDTYHIDTKTIATLLNKDQGTNYDESKWRKDFKQYERWNDYIMSKN” is 0.145. The result for “HMAMMTKQRLIQLIHIARNDLQMDEDTYRQMLQGLTGKASTKGMDTPQLNRVLESMKKKGFRIK” reads -0.447; that for “HMKVFTEDEMLEKIKEYLSTNSYINRRVMETQFGLRQNIALKWLKHFTEIGVLRKEGERNSPIYFLNN”, no less than 0.62; that for “HMERFVVISKDKYANLREEASTNSKVLAKVDNSYLIYNTNTYNENKDWYSVQIERDGNYYQVGYIHKSQL”, -1.79. “HMKNANGYGSITKLKGNRRKPYMVRITVGRDENGFPIRKVLGYYSSKANAVAALSDYNREPYDI”: the “soluble fraction (log2)” value was -0.667. The figure for “HMINGTITFYDDTTLKGELSSLDTKYLFIIPNGLVMPEKIAVSDIEYFNLDNGITLIQDGISKQTY” is -1.25; for “HMITNESEIERIVEAIISKNPESIAQYRSGITKVLGFLVGQVMKETKGRANPALVNRIIISKME” it is -0.281; for “HMNEDFSEIIAAVKKFAVDNLSLSTLSDEELEEQIKTITDNMIGNRYVSIKNRVDIAQQVFSSIR” it is -0.0581. The result for “HMLARFSGIALNTWTQADVERTFGPPMLVERVARFDGDIWTYRFMDDYEPRMAHIHIDRAGTVRQLVF” reads -2.77. With “HMKLVESALSILEEAVDRDFHGNLGDAARYFDIPYQTIYSWLKSRKRVPSLRALEPVLEKLGVSFTT”, the “soluble fraction (log2)” value is -0.896. The result for “HMPALELLVESKKPLLIHGEKIAEDINLFDREKYFIDDELIRIVKEFPSLKIILEHVSSKYGAD” reads -1.5; that for “HMSFDNIKVGYISETAGYVKGISLADANEYAKLNPDTEFIFIDGDEKVRFLTINEVNGLTPKNLLRSDP”, -0.23. For “HMEAKTSNPDYHARLGLTEGEGNDSALGVSVKAAEGGFGLLFGNKVGSDQLVRFANEDQVWLVNRALS”, the “soluble fraction (log2)” value amounted to 0.0188. For the sequence “HMPPAIKTLMFMIQNKSLLKSPKQLAVVQQQLKKIKGVRDVLILLEEGKVMLKVNKHETIHEASIIRLLGG”, the “soluble fraction (log2)” value is -0.521. The result for “HMINAQETEIYRFLIEKANRLYSMVLGLKREELMTATRQFEEEVKHSSIHHLPKIYQAFSSYLELLERG” reads -0.478; that for “HMESILDDFPGLGEKRKKALLEHFGSISKIKAATVGQLREVDGIGFETAAALREFLDANFPA”, 0.158; that for “HMVRGNLAEELLKLREEEGISFQEAGARSGIARSTISQVVNQGLRLKPNQEESLWRVIEEVRGVKER”, 0.046. As to “HMRIGINDRIHEIVDVLRLKKSTPFEDLFSGLVTRFDLVITFLALLEMGKLRLLRLYQTDPLAPLHVEYTG”, the “soluble fraction (log2)” value is -0.152.

Regarding “HMAGWMPGGTNPAEPGRFAVLMDVDDSDAYKHMFLRWNGHAWEFERTRVLVKMEPSWWMRLPDDPEKP”, the “soluble fraction (log2)” value is -1.99.
